Source: article doi:10.1101/2024.11.16.623948, “Biochemical principles of miRNA targeting in flies”

Experiments:
FLAG-Ago1 [1] = target: T1, FLAG-Ago1 (Drosophila melanogaster, UniProt A1Z9J5 1-950); test: RBNS; let-7 guide; RBNS: 20 mM HEPES-KOH pH 7.9, 100 mM KOAc, 3.5 mM Mg(OAc) (magnesium acetate), 0.05% CHAPS, 2 mM DTT, 8% glycerol, BSA, tRNA, 25 C 2 h; filter binding: 25 mM HEPES-KOH pH 7.9, 110 mM KOAc, 3.5 mM magnesium acetate, 2 mM DTT, BSA, tRNA, 8% glycerol, 25 C 2 h; competition: 18 mM HEPES-KOH pH 7.4, 100 mM KOAc, 3 mM magnesium acetate, 5 mM DTT, 0.01% IGEPAL, tRNA, 25 C 1 h; conditions: protein: recombinant, tags: FLAG
FLAG-Ago1 [2] = target: T1, FLAG-Ago1; test: RBNS; miR-184 guide; RBNS: 20 mM HEPES-KOH pH 7.9, 100 mM KOAc, 3.5 mM Mg(OAc) (magnesium acetate), 0.05% CHAPS, 2 mM DTT, 8% glycerol, BSA, tRNA, 25 C 2 h; filter binding: 25 mM HEPES-KOH pH 7.9, 110 mM KOAc, 3.5 mM magnesium acetate, 2 mM DTT, BSA, tRNA, 8% glycerol, 25 C 2 h; competition: 18 mM HEPES-KOH pH 7.4, 100 mM KOAc, 3 mM magnesium acetate, 5 mM DTT, 0.01% IGEPAL, tRNA, 25 C 1 h; conditions: protein: recombinant, tags: FLAG
FLAG-Ago1 [3] = target: T1, FLAG-Ago1; test: RBNS; miR-11 guide; RBNS: 20 mM HEPES-KOH pH 7.9, 100 mM KOAc, 3.5 mM Mg(OAc) (magnesium acetate), 0.05% CHAPS, 2 mM DTT, 8% glycerol, BSA, tRNA, 25 C 2 h; filter binding: 25 mM HEPES-KOH pH 7.9, 110 mM KOAc, 3.5 mM magnesium acetate, 2 mM DTT, BSA, tRNA, 8% glycerol, 25 C 2 h; competition: 18 mM HEPES-KOH pH 7.4, 100 mM KOAc, 3 mM magnesium acetate, 5 mM DTT, 0.01% IGEPAL, tRNA, 25 C 1 h; conditions: protein: recombinant, tags: FLAG
FLAG-Ago1 [4] = target: T1, FLAG-Ago1; test: RBNS; miR-11 guide; G:U site analysis; RBNS: 20 mM HEPES-KOH pH 7.9, 100 mM KOAc, 3.5 mM Mg(OAc) (magnesium acetate), 0.05% CHAPS, 2 mM DTT, 8% glycerol, BSA, tRNA, 25 C 2 h; filter binding: 25 mM HEPES-KOH pH 7.9, 110 mM KOAc, 3.5 mM magnesium acetate, 2 mM DTT, BSA, tRNA, 8% glycerol, 25 C 2 h; competition: 18 mM HEPES-KOH pH 7.4, 100 mM KOAc, 3 mM magnesium acetate, 5 mM DTT, 0.01% IGEPAL, tRNA, 25 C 1 h; conditions: protein: recombinant; tags: FLAG; g2-g7 + t1A
FLAG-Ago1 [5] = target: T1, FLAG-Ago1; test: RBNS; miR-11 guide; bulge site analysis; RBNS: 20 mM HEPES-KOH pH 7.9, 100 mM KOAc, 3.5 mM Mg(OAc) (magnesium acetate), 0.05% CHAPS, 2 mM DTT, 8% glycerol, BSA, tRNA, 25 C 2 h; filter binding: 25 mM HEPES-KOH pH 7.9, 110 mM KOAc, 3.5 mM magnesium acetate, 2 mM DTT, BSA, tRNA, 8% glycerol, 25 C 2 h; competition: 18 mM HEPES-KOH pH 7.4, 100 mM KOAc, 3 mM magnesium acetate, 5 mM DTT, 0.01% IGEPAL, tRNA, 25 C 1 h; conditions: protein: recombinant; tags: FLAG; g2-g7 + t1A
[6] = target: T2, Ago1 (RISC assembled in embryo lysate) (Drosophila melanogaster, UniProt A1Z9J5 1-950); test: competition; let-7 guide (text: 110-fold); RBNS: 20 mM HEPES-KOH pH 7.9, 100 mM KOAc, 3.5 mM Mg(OAc) (magnesium acetate), 0.05% CHAPS, 2 mM DTT, 8% glycerol, BSA, tRNA, 25 C 2 h; filter binding: 25 mM HEPES-KOH pH 7.9, 110 mM KOAc, 3.5 mM magnesium acetate, 2 mM DTT, BSA, tRNA, 8% glycerol, 25 C 2 h; competition: 18 mM HEPES-KOH pH 7.4, 100 mM KOAc, 3 mM magnesium acetate, 5 mM DTT, 0.01% IGEPAL, tRNA, 25 C 1 h; conditions: protein: native; g2-g21, G:U at g4 and g5
[7] = target: T2, Ago1 (RISC assembled in embryo lysate); test: competition; let-7 guide; nearly same affinity as fully complementary; RBNS: 20 mM HEPES-KOH pH 7.9, 100 mM KOAc, 3.5 mM Mg(OAc) (magnesium acetate), 0.05% CHAPS, 2 mM DTT, 8% glycerol, BSA, tRNA, 25 C 2 h; filter binding: 25 mM HEPES-KOH pH 7.9, 110 mM KOAc, 3.5 mM magnesium acetate, 2 mM DTT, BSA, tRNA, 8% glycerol, 25 C 2 h; competition: 18 mM HEPES-KOH pH 7.4, 100 mM KOAc, 3 mM magnesium acetate, 5 mM DTT, 0.01% …; conditions: protein: native; g2-g21, G:U at g4
FLAG-Ago1 [8] = target: T1, FLAG-Ago1; test: RBNS; bantam guide; RBNS: 20 mM HEPES-KOH pH 7.9, 100 mM KOAc, 3.5 mM Mg(OAc) (magnesium acetate), 0.05% CHAPS, 2 mM DTT, 8% glycerol, BSA, tRNA, 25 C 2 h; filter binding: 25 mM HEPES-KOH pH 7.9, 110 mM KOAc, 3.5 mM magnesium acetate, 2 mM DTT, BSA, tRNA, 8% glycerol, 25 C 2 h; competition: 18 mM HEPES-KOH pH 7.4, 100 mM KOAc, 3 mM magnesium acetate, 5 mM DTT, 0.01% IGEPAL, tRNA, 25 C 1 h; conditions: protein: recombinant, tags: FLAG

T1 sequence (A1Z9J5 entry or part of it): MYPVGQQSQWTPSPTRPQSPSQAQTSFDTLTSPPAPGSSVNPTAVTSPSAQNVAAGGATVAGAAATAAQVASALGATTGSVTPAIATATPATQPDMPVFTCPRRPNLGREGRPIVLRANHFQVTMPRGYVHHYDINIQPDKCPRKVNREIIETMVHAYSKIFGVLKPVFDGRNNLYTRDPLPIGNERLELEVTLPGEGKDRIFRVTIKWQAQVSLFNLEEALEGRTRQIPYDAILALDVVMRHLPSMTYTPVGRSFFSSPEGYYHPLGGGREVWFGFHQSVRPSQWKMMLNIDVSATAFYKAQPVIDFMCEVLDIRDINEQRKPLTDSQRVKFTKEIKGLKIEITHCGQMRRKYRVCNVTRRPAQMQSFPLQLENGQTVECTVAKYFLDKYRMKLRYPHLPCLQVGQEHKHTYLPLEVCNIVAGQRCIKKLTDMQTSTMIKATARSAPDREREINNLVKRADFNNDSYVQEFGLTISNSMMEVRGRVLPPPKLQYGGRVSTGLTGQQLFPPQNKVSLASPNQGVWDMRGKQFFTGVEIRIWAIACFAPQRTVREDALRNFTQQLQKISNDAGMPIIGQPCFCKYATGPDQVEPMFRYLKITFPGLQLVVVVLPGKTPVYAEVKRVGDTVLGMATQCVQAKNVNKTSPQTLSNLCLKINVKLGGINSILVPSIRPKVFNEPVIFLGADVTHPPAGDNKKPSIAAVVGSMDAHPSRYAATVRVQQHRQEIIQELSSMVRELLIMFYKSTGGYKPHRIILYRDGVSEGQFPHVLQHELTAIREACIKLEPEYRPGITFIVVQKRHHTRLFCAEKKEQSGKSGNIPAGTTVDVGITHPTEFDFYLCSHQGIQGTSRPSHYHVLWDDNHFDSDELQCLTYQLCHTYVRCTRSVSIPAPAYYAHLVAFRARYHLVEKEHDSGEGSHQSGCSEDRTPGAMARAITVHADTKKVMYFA
T2 sequence (A1Z9J5 entry or part of it): as above

B1: let-7 / 8mer (dsRNA)
RNA 1: UGAGGUAGUAGGUUGUAUAGU
RNA 2: CUACCUCA
modifications: guide 5' phosphate
Kd (FLAG-Ago1 [1]; guide g2-g8 + t1A, site in 20-nt random RBNS library): 0.00173 nM

B2: let-7 / 7mer-A1 (dsRNA)
RNA 1: UGAGGUAGUAGGUUGUAUAGU
RNA 2: UACCUCA
modifications: guide 5' phosphate
Kd (FLAG-Ago1 [1]; g2-g7 + t1A): 0.0221 nM

B3: miR-184 / 7mer-A1 (dsRNA)
RNA 1: UGGACGGAGAACUGAUAAGGGC
RNA 2: CCGUCCA
modifications: guide 5' phosphate
Kd (FLAG-Ago1 [2]; g2-g7 + t1A): 0.037 nM

B4: miR-184 / 6mer-m8 (dsRNA)
RNA 1: UGGACGGAGAACUGAUAAGGGC
RNA 2: UCCGUC
modifications: guide 5' phosphate
Kd (FLAG-Ago1 [2]; g3-g8): 0.321 nM

B5: miR-184 / 7mer-m8,w2 (dsRNA)
RNA 1: UGGACGGAGAACUGAUAAGGGC
RNA 2: UCCGUCU
modifications: guide 5' phosphate
Kd (FLAG-Ago1 [2]; G:U at g2): 0.154 nM

B6: miR-184 / 8mer-x4C (dsRNA)
RNA 1: UGGACGGAGAACUGAUAAGGGC
RNA 2: UCCGCCCA
modifications: guide 5' phosphate
Kd (FLAG-Ago1 [2]; mismatch at t4): ~0.13 nM

B7: miR-184 / 8mer-b5.6C (printed b5.6CA) (dsRNA)
RNA 1: UGGACGGAGAACUGAUAAGGGC
RNA 2: UCCCGUCCA
modifications: guide 5' phosphate
Kd (FLAG-Ago1 [2]; nucleation bulge C between t5 and t6): 0.038 nM

B8: miR-11 / 8mer-w8 (dsRNA)
RNA 1: CAUCACAGUCUGAGUUCUUGC
RNA 2: UUGUGAUA
modifications: guide 5' phosphate
Kd (FLAG-Ago1 [3]; G:U at g8): 0.0612 nM

B9: miR-11 / 7mer-A1 (dsRNA)
RNA 1: CAUCACAGUCUGAGUUCUUGC
RNA 2: UGUGAUA
modifications: guide 5' phosphate
Kd (FLAG-Ago1 [4]): 0.0812 nM | Kd (FLAG-Ago1 [5]): 0.07 nM

B10: miR-11 / 8mer-b5.6G (dsRNA)
RNA 1: CAUCACAGUCUGAGUUCUUGC
RNA 2: CUGGUGAUA
modifications: guide 5' phosphate
Kd (FLAG-Ago1 [3]; nucleation bulge G between t5 and t6): 0.107 nM

B11: let-7 / 6mer-m8 (dsRNA)
RNA 1: UGAGGUAGUAGGUUGUAUAGU
RNA 2: CUACCU
modifications: guide 5' phosphate
Kd (FLAG-Ago1 [1]; g3-g8): 0.328 nM

B12: let-7 / competitor G:U at g4-g5 (dsRNA)
RNA 1: UGAGGUAGUAGGUUGUAUAGU
RNA 2: GAUACUAUACAACCUACUAUUUCAACCU
modifications: 2'-O-methyl and phosphorothioate at t10-t11
binding signal [6]: 120 ± 20 fold Kd vs fully complementary

B13: let-7 / 6mer-A1 (dsRNA)
RNA 1: UGAGGUAGUAGGUUGUAUAGU
RNA 2: ACCUCA
modifications: guide 5' phosphate
Kd (FLAG-Ago1 [1]; g2-g6 + t1A): 0.092 nM

B14: let-7 / competitor G:U at g4 (dsRNA)
RNA 1: UGAGGUAGUAGGUUGUAUAGU
RNA 2: GAUACUAUACAACCUACUACUUCAACCU
modifications: 2'-O-methyl and phosphorothioate at t10-t11
binding result [7]: binds

B15: let-7 / 8mer-w8 (dsRNA)
RNA 1: UGAGGUAGUAGGUUGUAUAGU
RNA 2: UUACCUCA
modifications: guide 5' phosphate
Kd (FLAG-Ago1 [1]; G:U at g8): 0.0154 nM

B16: let-7 / 7mer-m8,w2 (dsRNA)
RNA 1: UGAGGUAGUAGGUUGUAUAGU
RNA 2: CUACCUU
modifications: guide 5' phosphate
Kd (FLAG-Ago1 [1]; G:U at g2): 0.278 nM

B17: let-7 / 8mer-b5.6A (dsRNA)
RNA 1: UGAGGUAGUAGGUUGUAUAGU
RNA 2: CUAACCUCA
modifications: guide 5' phosphate
Kd (FLAG-Ago1 [1]; nucleation bulge A between t5 and t6): 0.12 nM

B18: bantam / 8mer (dsRNA)
RNA 1: UGAGAUCAUUUUGAAAGCUGAUU
RNA 2: UGAUCUCA
modifications: guide 5' phosphate
Kd (FLAG-Ago1 [8]; g2-g8 + t1A): 0.0189 nM

B19: bantam / 7mer-m8,w2 (dsRNA)
RNA 1: UGAGAUCAUUUUGAAAGCUGAUU
RNA 2: UGAUCUU
modifications: guide 5' phosphate
Kd (FLAG-Ago1 [8]; G:U at g2): 0.866 nM

B20: bantam / 6mer-m8 (dsRNA)
RNA 1: UGAGAUCAUUUUGAAAGCUGAUU
RNA 2: UGAUCU
modifications: guide 5' phosphate
Kd (FLAG-Ago1 [8]; g3-g8): 1.01 nM
